# B1: JH (designed binder)
# chain: SGSSEELAREAREAAIRLAQASTKLMEAMIRGDLKELAEALIELARAVQELARVAKEYGNDELAKLAAFLAAHIAMLAIWVLILAIREGDDEVRELAKTAIKLASTAAKIVLDALPTAEEVRIITLLAKLAEEAADKKNEDSALAVLIAAMAVLIALAALEAAQRAGIEEAEKAARLLLKLAGEAARKKNPEEAKAVYNAALLVSIALLLLQKAKRAGSEETRRLAEEMLRQALERARKKN
# notes: Designed homodimer subunit, after TEV cleavage
# B2: D2T (designed binder)
# chain: SGSGSEEEELERLKEQLKIWQKLIKLILEQDPNDEQIRRILEQAEEIIQKLQEDPNNEELQRLIQLLFQLVLGIFIIKQILELDPNDEQIRRILEQAKEIIQKLQEDPNNEELYRLQGLLGMLVGIILLIKLMLEQDPNDELIREILEQAKEIIQKLQEDPNNQELLSLIHLLLALVLWIWFMKFQLEQDPNDEEIRRQLEQLEERIRRTLE
# notes: as for B1
# B3: JF (designed binder)
# chain: SGSGSSDELQARFLILSAKLQAEMAQIAAERTGDPRVRELARELKRLAQEAAEEVKRDPSSSEVNSNLALISMAIALAVLALLLARKAGDEEARDIAREAVEVAVRAAELILEGRDDQRAWTLWLIAHALLMAVYAARLGNSEVAELAVKVLRLAKELEKLLPSEEALFVVSMIGLAALQAAMAAAGGQEDYARDALRRLEEAIREAEENRSKESLEKVEEEGIEAMEQALRAIAGG
# notes: as for B1
# B4: D2K (designed binder)
# chain: SGSGSREKELKQLISNLQILLLILLSQDPNNELVRKLQEKIKEAEEQGDPRRLKLIWWILALINILQALEQEDPNNELVKRLKELIKRALEEGDPRLLQLILLILHLIWLLQALEKEDPNNELVKRLKKLIEEALKEGDPRKLWQILALLLWIAQIQKLKKQDPNNELIKRAEETLEQSLKT
# notes: as for B1
# B5: D2Q (designed binder)
# chain: SGSGSEEEEKRLIEKMSKFIWWFAQQLGDERILRAVEKLQQEIKENSPTPETYMTLGNLLLSLLIWWAAQQLGDEKILEAVERLLQQIEENSPTPETHLTLAILMSALAIWQQAQKLGDEDILEAVERLLEEIQRNSPTPSTMTKLLWLALLLNNWEELQKQGDEEQLRSSEKAMKELKE
# notes: as for B1
# B6: D2M (designed binder)
# chain: SGSGSEEEQIRLAQLAIQIIQYQVEKNGDEQLLRLIQEITEQLQKEGDERLIAILSTMFGIIWILEQVEKNGDEELLRLIQEITEKLARQGDERLIQIGAAMLAIIIILEQVKKNGDEQLLRLIREITRKLAEEGDQRLIWILHAMMAIIMSSEELEKNGDEELLQKLRELLEKIAKE
# notes: as for B1
# B7: tj79C2-H65A (designed binder)
# chain: SGSGSREDELLARYLILLAELAAEEADIAAERTGDPRVRELARELKRLAQEAAEEVKRDPSSSDVNHALHLIVLAILIAVEALEAAERTGDPEVRELARELVRLAVEAAEEVQRNPSSSDVLKALILILLAIIQAVKALEAAERTGDPEVRELARELVRLAVEAAEEVQRNPSSKEVTMALLLILIAILEAVLSLLRAERSGDPEKREKARERVREAVERAEEVQRDPSGW
# notes: as for B1
# B8: tj79C2-H65B (designed binder)
# chain: SGSGSREDELFARYLILLAELAAERADIAAERTGDPRVRELARELKRLAQEAAEEVKRDPSSSDVNLALHLIVLAILAAVEALEAAERTGDPEVRELARELVRLAVEAAEEVQRNPSSSDVLKALMLIVLAILQAVQALEAAERTGDPEVRELARELVRLAVEAAEEVQRNPSSKEVYMALLLILIAILEAVLSLLRAERSGDPEKREKARERVREAVERAEEVQRDPSGW
# notes: as for B1
# B9: JG (designed binder)
# chain: SGSGSSDELEARLLIISANLQAEMAQIAAERTGDPRVRELARELKRLAQEAAEEVKRDPSSSEVNQNLTLISMAIALAVLALLLARKAGDEEARDIAREAVEVAVRAAELILEGRDEQRAWTLFLIAHALLLAVLAARLGNSEVAELAVKVLRLAKELEKLLPSEIALFVVSMIGMAALQAAMAASGGQEDYARDALRRLEEAIREAEENRSKESLEKVMEEAIRAYEQALRALAGG
# notes: as for B1
# B10: SP1 (designed binder)
# chain: GGDSRELIARYQILLAELAAIRADIAAERTGDPYVRKLARELKRLAQEAAEEVKRDPSSSDVNMALLLILLMIELAVRALEAAERTGDPEVRELAAELVWLAVEAAEEVQRNPSSSDVWLALHLIMLAIWAAVAALEAAERTGDPEVRELARELVRLAVEAAEEVQRNPSSKEVYMALLLILIAILEAVLSLLRAERSGDPEKREKARERVREAVERAEEVQR
# notes: De novo designed subunit of a C2 homodimer
# B11: D2N (designed binder)
# chain: SGSGSEEEEIRLAQLTIQIIQYQVEKNGDEQLLRLIQEITEQLQKEGDERLIRILNAMFTIIWILEAVEKNGDEELLRLIQEITEKLARQGDERLIKILSAMAGIIWILEIVKKNGDEQLLRLIREITRKLAEEGDERLIQILANMHSIIISSEELEKNGDEELLQKLRELLEKIAKELEHHHHHH
# notes: as for B1
# B12: D2P (designed binder)
# chain: SGSGSEEEEKRLIEKMSKFIWWFAQQLGDERILRAVEKLQQEIKENSPTPETFMTLINLLLSLLIWWAAQKLGDEKILEAVERLLQQIEENSPTPETHMTLAALAQSLAIWQQAQKLGDEDILEAVERLLEEIQRNSPTPSTLIKLTWLLLLLNNWQELQKQGDEEQLRSSEKAMKELKE
# notes: as for B1
# B13: tj79C2-H62A (designed binder)
# chain: SGSGSRYDELNARLLILLAELAAERADIAAERTGDPRVRELARELKRLAQEAAEEVKRDPSSWSVLHALWLIVVAIEAAVRALEAAERTGDPEVRELARELVRLAVEAAEEVQRNPSSWDVFMALLLIVFAIEAAVRALEAAERTGDPEVRELARELVRLAVEAAEEVQRNPSSKEVDMALLLILIAILEAVLSLLRAERSGDPEKREKARERVREAVERAEEVQRDPSGW
# notes: as for B1
# B14: D2O (designed binder)
# chain: SGSGSEEEEIRLAQLAIQIIQYQVEKNGDEQLLRLIQEITEQLQKEGDERLIRILLAMFAIILILEHVEKNGDEELLRLIQEITEKLARQGDERLIRILIAMAGIIWILELVKKNGDEQLLRLIREITRKLAEEGDERLIQILLAMHAIIISSEQLEKNGDEELLQKLRELLEKIAKE
# notes: as for B1
# B15: D2R (designed binder)
# chain: SGSGSEEEELKRLQTLIKYLQLLIQNAKWQNPDDELLRQVEELIEEMKKRLEENPNSQEDQALLKLLITIIALIIMILWLKSENPDDELLRQVEELIKEMIERLKENPNSQEDQALLQLLHAILGLILLIQQLKKQNPDDELLQQVEELIEEMIKRLKENPNSEKDQILLSFLALSLLSIFLIQTQKKQNPDDERLKQWEKQIKESIESSKE
# notes: as for B1
# B16: SP2 (designed binder)
# chain: SGSGSSDEEFKFLATEAKMLITAAERLAGTDPELQEMVALIKKELEQAERTFRNGDKSEAQRQLEFVLTAARAVMNVAAAANAAGTDPELIEMVLRILKQLKEAIRTFQNGDQEEAETQLRFVLRAAIAVAVVAAALVLAGTDPELQEMVKQILEELKQAIETFARGDKEKALTQLLFVAWAAHAVAMIAAAANLAGTDPRLQQQVKEILEKLKEAIETFQKGDEEQAFRQLAEVLAEAALVALRAALTN
# notes: as for B10
# B17: D2S (designed binder)
# chain: SGSGSEEEELERLKEQLKIWQKLIKLILEQDPNDEQIRRILEQAEEIIQKLQEDPNNEELQRLIQLLFNLVAIIFSIKQILELDPNDEQIRRILEQAKEIIQKLQEDPNNEELFLLAHMLFALVAIILLIKLMLEQDPNDELIREILEQAKEIIQKLQEDPNNAELAMLIALLLSLVLWIWFMKFQLEQDPNDEEIRRQLEQLEERIRRTLE
# notes: as for B1
# B18: D2L (designed binder)
# chain: SGSGSREKELKQLISNLQILLLILLSEDPNNELVRKLQEKIKEAEEQGDPRRLKLIWWILNLIQMLQQLEQEDPNNELVKRLKELIKRALEEGDPRLLLLIHIILALIWLLQALEKEDPNNELVKRLKKLIEEALKEGDPRKLIQIALLLTWIATIQRLKKQDPNNELIKRAEETLEQSLKT
# notes: as for B1
# B19: tj79C2-H65D (designed binder)
# chain: SGSGSREDELQARLLILLIELAAERADIAAERTGDPRVRELARELKRLAQEAAEEVKRDPSSSDVWLALHLIVIAILIAVEALEAAERTGDPEVRELARELVRLAVEAAEEVQRNPSSSDVLKALMLILIAILLLLEALEAAERTGDPEVRELARELVRLAVEAAEEVQRNPSSKEVQMALLLILIAILEAILSLLRAERSGDPEKREKARERVREAVERAEEVQRDPSGW
# notes: as for B1
# B20: tj79C2-H65E (designed binder)
# chain: SGSGSREDELWARLLILLIELAAERADIAAERTGDPRVRELARELKRLAQEAAEEVKRDPSSSDVLLALHLIVIAILIAVEALEAAERTGDPEVRELARELVRLAVEAAEEVQRNPSSSDVLIALMLILIAILLLLEALEAAERTGDPEVRELARELVRLAVEAAEEVQRNPSSKEVQMALLLILIAILEAILSLLRAERSGDPEKREKARERVREAVERAEEVQRDPSGW
# notes: as for B1
# B21: tj79C2-H65C (designed binder)
# chain: SGSGSREDELIARYLILLAELAAERADIAAERTGDPRVRELARELKRLAQEAAEEVKRDPSSSDVFMALHLIVLAIQIAVKALEAAERTGDPEVRELARELVRLAVEAAEEVQRNPSSSDVFLALLLIVTAIMLAVEALEAAERTGDPEVRELARELVRLAVEAAEEVQRNPSSKEVLMALLLILIAILEAVLSLLRAERSGDPEKREKARERVREAVERAEEVQRDPSGW
# notes: as for B1
# Molecular target: the molecule itself
# Assay: size-exclusion chromatography, self-association (homodimer)
# Protocol: FIG. 7. Size exclusion chromatography (SEC) traces of purified SP apo-proteins. Proteins were injected as 0.5 mL aliquots onto a Superdex™ 200 Increase 10/300 GL column (Cytiva Life Sciences). The narrow, isolated peaks indicate that the samples contain monodisperse protein. Running buffer was 150 mM NaCl, 10 mM Tris at pH 8. Proteins were purified by Ni-NTA and one round of SEC prior to collecting the data shown.
# Proteins were purified by Ni-NTA and size-exclusion chromatography (SEC) (FIG. 7). […] A slightly lower predicted radius of gyration (Rg) value compared to experimental SAXS data is likely due to a dense hydration shell around the highly charged SP proteins (Svergun et al. 1998; Kim et al. 2016). The far ultraviolet (UV) circular dichroism (CD) spectra of three SP proteins that expressed in high yield (≥140 mg/L) show the proteins are highly α-helical with and without the synthetic Chl a derivative, Zn pheophorbide a methyl ester (ZnPPaM). Thermal denaturation curves monitored by the CD signal at 222 nm indicate that all three proteins are highly thermostable in the apo- and holo-states (FIG. 2).
row,Protein,binding result
1,B1,binds
2,B2,binds
3,B3,binds
4,B4,binds
5,B5,binds
6,B6,binds
7,B7,binds
8,B8,binds
9,B9,binds
10,B10,binds
11,B11,binds
12,B12,binds
13,B13,binds
14,B14,binds
15,B15,binds
16,B16,binds
17,B17,binds
18,B18,binds
19,B19,binds
20,B20,binds
21,B21,binds

# From US20250326867A1, “De novo designed chlorophyll special pair proteins” (University of Washington, priority 2024, published 2025)
